Measured values: IntAct's records for PubMed 17986610

Tests used:
trcb_xenla fbxw1 = trcb_xenla fbxw1 (UniProt Q91854)
plk1_xenla plk1 = plk1_xenla plk1 (UniProt P70032)
plk1_xenla plk1, sequence (P70032 whole entry): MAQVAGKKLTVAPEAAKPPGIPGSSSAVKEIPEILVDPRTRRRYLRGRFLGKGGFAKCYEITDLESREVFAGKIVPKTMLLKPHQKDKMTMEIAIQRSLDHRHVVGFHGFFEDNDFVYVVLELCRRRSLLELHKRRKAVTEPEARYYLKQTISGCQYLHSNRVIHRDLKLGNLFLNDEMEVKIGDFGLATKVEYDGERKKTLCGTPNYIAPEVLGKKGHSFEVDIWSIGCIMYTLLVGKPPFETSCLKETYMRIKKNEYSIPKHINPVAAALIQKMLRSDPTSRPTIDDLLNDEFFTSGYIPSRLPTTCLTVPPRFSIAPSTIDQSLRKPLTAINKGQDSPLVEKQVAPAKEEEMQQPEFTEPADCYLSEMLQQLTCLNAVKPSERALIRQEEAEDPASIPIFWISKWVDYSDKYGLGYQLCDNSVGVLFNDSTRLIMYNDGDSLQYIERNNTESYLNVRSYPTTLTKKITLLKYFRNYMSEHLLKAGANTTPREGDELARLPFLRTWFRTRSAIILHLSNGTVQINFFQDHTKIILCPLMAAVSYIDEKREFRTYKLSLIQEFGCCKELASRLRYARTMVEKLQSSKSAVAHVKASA

trcb_xenla fbxw1, sequence (Q91854 whole entry): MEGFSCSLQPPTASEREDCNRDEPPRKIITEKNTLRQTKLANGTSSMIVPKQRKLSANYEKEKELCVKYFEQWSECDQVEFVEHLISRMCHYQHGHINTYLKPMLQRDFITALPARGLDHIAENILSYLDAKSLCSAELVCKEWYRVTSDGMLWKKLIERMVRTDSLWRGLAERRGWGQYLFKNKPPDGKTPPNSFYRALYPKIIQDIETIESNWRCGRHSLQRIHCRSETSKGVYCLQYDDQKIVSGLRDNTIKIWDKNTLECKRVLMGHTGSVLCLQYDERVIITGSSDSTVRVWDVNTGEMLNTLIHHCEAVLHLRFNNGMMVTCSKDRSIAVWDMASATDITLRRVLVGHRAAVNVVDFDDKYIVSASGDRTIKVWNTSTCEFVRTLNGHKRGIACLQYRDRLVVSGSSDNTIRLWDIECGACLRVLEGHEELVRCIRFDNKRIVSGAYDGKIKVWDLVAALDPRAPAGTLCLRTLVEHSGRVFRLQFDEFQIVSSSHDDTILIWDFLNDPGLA
Cytoplasmic polyadenylation element-binding protein 1-A (Xenopus laevis (African clawed frog)), Q91572 T125A, sequence (Q91572 whole entry T125A): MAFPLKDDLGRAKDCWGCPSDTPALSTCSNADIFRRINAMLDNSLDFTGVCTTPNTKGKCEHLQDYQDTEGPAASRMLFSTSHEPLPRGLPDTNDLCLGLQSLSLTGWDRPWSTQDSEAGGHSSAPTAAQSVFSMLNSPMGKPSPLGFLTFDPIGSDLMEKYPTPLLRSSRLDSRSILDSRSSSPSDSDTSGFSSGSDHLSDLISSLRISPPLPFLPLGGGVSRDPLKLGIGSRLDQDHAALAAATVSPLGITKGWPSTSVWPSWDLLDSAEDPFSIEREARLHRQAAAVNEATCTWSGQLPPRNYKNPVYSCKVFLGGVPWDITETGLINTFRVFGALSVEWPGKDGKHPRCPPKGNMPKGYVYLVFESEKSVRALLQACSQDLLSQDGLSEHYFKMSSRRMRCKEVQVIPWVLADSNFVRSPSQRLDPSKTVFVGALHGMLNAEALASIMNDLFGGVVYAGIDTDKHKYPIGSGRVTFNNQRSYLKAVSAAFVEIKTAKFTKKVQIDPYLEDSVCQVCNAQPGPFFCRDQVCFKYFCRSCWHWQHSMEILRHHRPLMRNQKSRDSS
Cytoplasmic polyadenylation element-binding protein 1-A (Xenopus laevis (African clawed frog)), Q91572 G192A, sequence (Q91572 whole entry G192A): as the sequence (Q91572 whole entry T125A) above, with A125T, G192A counted along it

effect of a mutation on the interaction (trcb_xenla fbxw1)	effect of a mutation on the interaction (plk1_xenla plk1)	Substance
decreasing interaction		Cytoplasmic polyadenylation element-binding protein 1-A (Xenopus laevis (African clawed frog)), Q91572 G192A
	decreasing interaction	Cytoplasmic polyadenylation element-binding protein 1-A (Xenopus laevis (African clawed frog)), Q91572 T125A
